Measured values published in PMC12098869, “An mRNA-display derived cyclic peptide scaffold reveals the substrate binding interactions of an N-terminal cysteine oxidase” (Nature Communications, 2025).

B1: 2-aminoethanethiol dioxygenase (ADO), full-length human, N-terminally His-tagged and biotinylated (pQE80L-Navi-ADO) [modified: biotin (biotinylated during expression, 0.2 mM biotin added); biotin (biotinylated during … (parent)
chain 1: CFPKVLSDDMKKLK
chain 2: MPRDNMASLIQRIARQACLTFRGSGGGRGASDRDAASGPEAPMQPGFPENLSKLKSLLTQLRAEDLNIAPRKATLQPLPPNLPPVTYMHIYETDGFSLGVFLLKSGTSIPLHDHPGMHGMLKVLYGTVRISCMDKLDAGGGQRPRALPPEQQFEPPLQPREREAVRPGVLRSRAEYTEASGPCILTPHRDNLHQIDAVEGPAAFLDILAPPYDPDDGRDCHYYRVLEPVRPKEASSSACDLPREVWLLETPQADDFWCEGEPYPGPKVFP
B2: 2-aminoethanethiol dioxygenase (ADO), full-length human, N-terminally His-tagged and biotinylated (pQE80L-Navi-ADO) [modified: biotin (biotinylated during expression, 0.2 mM biotin added); biotin (biotinylated during … (parent)
chain 1: CKGLAALPHSCLER
chain 2: B1 chain 2

Variants of: B1
Assay: SPR
Settings: with IL32_(2-15), parent: 1, read off a plot

Row | ratio to parent (fold difference) | Variant
1 | -7 | chain 2 MPRDNMASLIQRIARQACLTFRGSGGGRGASDRDAASGPEAPMQPGFPENLSKLKSLLTQLRAEDLNIAPRKATLQPLPPNLPPVTYMHIYETDGFSLGVFLLKSGTSIPLHDHPGMHGMLKVLYGTVRISCMDKLDAGGGQRPRALPPEQQFEPPLQPREREAVRPGVLRSRAEYTEASGPCILTPHRDNLHQIDAVEGPAAFLNILAPPYDPDDGRDCHYYRVLEPVRPKEASSSACDLPREVWLLETPQADDFWCEGEPYPGPKVFP [chain 2 D206N]
2 | 60 | chain 2 MPRDNMASLIQRIARQACLTFRGSGGGRGASDRDAASGPEAPMQPGFPENLSKLKSLLTQLRAEDLNIAPRKATLQPLPPNLPPVTYMHIYETDGFSLGVFLLKSGTSIPLHDHPGMHGMLKVLYGTVRISCMDKLDAGGGQRPRALPPEQQFEPPLQPREREAVRPGVLRSRAEYTEASGPCILTPHRDNLHQIDAVEGPAAFLDILAPPADPDDGRDCHYYRVLEPVRPKEASSSACDLPREVWLLETPQADDFWCEGEPYPGPKVFP [chain 2 Y212A]
3 | 19 | chain 2 MPRDNMASLIQRIARQACLTFRGSGGGRGASDRDAASGPEAPMQPGFPENLSKLKSLLTQLRAEDLNIAPRKATLQPLPPNLPPVTYMHIYETDGFSLGVFLLKSGTSIPLHDHPGMHGMLKVLYGTVRISCMDKLDAGGGQRPRALPPEQQFEPPLQPREREAVRPGVLRSRAEYTEASGPCILTPHRDNLHQIDAVEGPAAFLDILAPPFDPDDGRDCHYYRVLEPVRPKEASSSACDLPREVWLLETPQADDFWCEGEPYPGPKVFP [chain 2 Y212F]

Variants of: B2
Assay: SPR
Settings: with RGS5_(2-15), parent: 1, read off a plot

Row | ratio to parent (fold difference) | Variant
4 | -4 | chain 2 MPRDNMASLIQRIARQACLTFRGSGGGRGASDRDAASGPEAPMQPGFPENLSKLKSLLTQLRAEDLNIAPRKATLQPLPPNLPPVTYMHIYETDGFSLGVFLLKSGTSIPLHDHPGMHGMLKVLYGTVRISCMDKLDAGGGQRPRALPPEQQFEPPLQPREREAVRPGVLRSRAEYTEASGPCILTPHRDNLHQIDAVEGPAAFLNILAPPYDPDDGRDCHYYRVLEPVRPKEASSSACDLPREVWLLETPQADDFWCEGEPYPGPKVFP [chain 2 D206N]
5 | 39 | chain 2 MPRDNMASLIQRIARQACLTFRGSGGGRGASDRDAASGPEAPMQPGFPENLSKLKSLLTQLRAEDLNIAPRKATLQPLPPNLPPVTYMHIYETDGFSLGVFLLKSGTSIPLHDHPGMHGMLKVLYGTVRISCMDKLDAGGGQRPRALPPEQQFEPPLQPREREAVRPGVLRSRAEYTEASGPCILTPHRDNLHQIDAVEGPAAFLDILAPPFDPDDGRDCHYYRVLEPVRPKEASSSACDLPREVWLLETPQADDFWCEGEPYPGPKVFP [chain 2 Y212F]
6 | 110 | chain 2 MPRDNMASLIQRIARQACLTFRGSGGGRGASDRDAASGPEAPMQPGFPENLSKLKSLLTQLRAEDLNIAPRKATLQPLPPNLPPVTYMHIYETDGFSLGVFLLKSGTSIPLHDHPGMHGMLKVLYGTVRISCMDKLDAGGGQRPRALPPEQQFEPPLQPREREAVRPGVLRSRAEYTEASGPCILTPHRDNLHQIDAVEGPAAFLDILAPPADPDDGRDCHYYRVLEPVRPKEASSSACDLPREVWLLETPQADDFWCEGEPYPGPKVFP [chain 2 Y212A]
